We go through one molecule from paper PMC5986199.

The term stoichiometry N denotes a count of units in the complex or per binding partner.

For the assay, the target named is α-NAC subunit of C. elegans NAC (C. elegans). Put plainly: cross-linking; BS3 (d0/d4) at 20- or 50-fold molar excess, 20 uM NAC alone or + 20 uM substrate, 10 mM sodium phosphate pH 7.0, room temperature 1 h; SDS-PAGE, in-gel tryptic digest, LC-MS/MS.

B1: β-NAC subunit of C. elegans NAC (natural protein)
chain: MDSKAIAERIKKLQAQQEHVRIGGKGTPRRKKKVIHKTAAADDKKLQSNLKKLSVTNIPGIEEVNMIKDDGTVIHFNNPKVQTSVPANTFSVTGSADNKQITEMLPGILNQLGPESLTHLKKLANNVTKLGPDGKGEDEDVPELVGDFDAASKNETKADEQ
Regarding B1, the stoichiometry N amounted to 1.
